The values below are quoted from earlier work in PMC10544997.

This data set addresses FcγRIIa (Homo sapiens) (UniProt P12318).

Chain of FcγRIIa (Homo sapiens) (P12318 34-317): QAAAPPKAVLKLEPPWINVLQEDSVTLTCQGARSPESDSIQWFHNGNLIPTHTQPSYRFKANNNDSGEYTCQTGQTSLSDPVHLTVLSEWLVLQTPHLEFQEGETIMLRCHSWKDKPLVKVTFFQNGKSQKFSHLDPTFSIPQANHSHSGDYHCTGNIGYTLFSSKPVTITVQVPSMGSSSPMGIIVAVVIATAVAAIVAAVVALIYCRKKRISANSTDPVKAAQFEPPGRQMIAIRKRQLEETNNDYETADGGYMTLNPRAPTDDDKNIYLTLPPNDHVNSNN

With IgG1 Fc (from UniProt P01857), the dissociation constant Kd was 1000 nM.
